pIC50, pKd: −log10 of the molar value.
Experiments:
[1] = target: HLA-B*15:01; assay: IEDB peptide-MHC binding, purified MHC/competitive/fluorescence; ≥ and ≤ were set here for values at or beyond the usual limits of such assays; conditions: source organism: Sudan ebolavirus
[2] = target: HLA-A*02:01; assay: as above
[3] = target: HLA-A*24:02; assay: as above
[4] = target: HLA-B*58:01; assay: IEDB peptide-MHC binding, purified MHC/competitive/radioactivity; filed as Kd, often an IC50 or EC50 that approximates it; ≥ and ≤ were set here for values at or beyond the usual limits of such assays; conditions: source organism: Dengue virus 3 Martinique/1243/1999
[5] = target: HLA-B*57:01; assay: as above; conditions: source organism: Dengue virus 3 Martinique/1243/1999
[6] = target: HLA-B*53:01; assay: as above; conditions: source organism: Dengue virus 3 Martinique/1243/1999
[7] = target: HLA-B*18:01; assay: IEDB peptide-MHC binding, purified MHC/direct/fluorescence; filed as Kd, often an IC50 or EC50 that approximates it; ≥ and ≤ were set here for values at or beyond the usual limits of such assays; conditions: source organism: Mammarenavirus juninense
[8] = target: HLA-B*08:01; assay: as above; conditions: source organism: Mammarenavirus juninense
[9] = target: HLA-B*58:01; assay: as above; conditions: source organism: Mammarenavirus juninense
[10] = target: HLA-B*48:01; assay: as above; conditions: source organism: Mammarenavirus juninense
[11] = target: HLA-A*01:01; assay: as above; conditions: source organism: Mammarenavirus juninense
[12] = target: HLA-B*44:02; assay: as above; conditions: source organism: Mammarenavirus juninense
[13] = target: HLA-A*03:01; assay: as above; conditions: source organism: Mammarenavirus juninense
[14] = target: HLA-A*11:01; assay: as above; conditions: source organism: Mammarenavirus juninense
[15] = target: HLA-B*57:01; assay: as above; conditions: source organism: Mammarenavirus juninense
[16] = target: HLA-B*27:05; assay: as above; conditions: source organism: Mammarenavirus juninense
[17] = target: HLA-B*46:01; assay: as above; conditions: source organism: Mammarenavirus juninense
[18] = target: HLA-A*31:01; assay: as above; conditions: source organism: Mammarenavirus juninense
[19] = target: HLA-A*69:01; assay: as above; conditions: source organism: Mammarenavirus juninense
[20] = target: HLA-A*29:02; assay: as above; conditions: source organism: Mammarenavirus juninense
[21] = target: HLA-A*03:01; assay: IEDB peptide-MHC binding, purified MHC/competitive/fluorescence; ≥ and ≤ were set here for values at or beyond the usual limits of such assays
[22] = target: HLA-A*11:01; assay: as above; conditions: source organism: Zaire ebolavirus
[23] = target: HLA-B*51:01; assay: IEDB peptide-MHC binding, purified MHC/direct/fluorescence; filed as Kd, often an IC50 or EC50 that approximates it; ≥ and ≤ were set here for values at or beyond the usual limits of such assays; conditions: source organism: Lassa virus Josiah
[24] = target: HLA-B*07:02; assay: as above; conditions: source organism: Lassa virus Josiah
[25] = source organism: Sudan ebolavirus
[26] = source organism: Zaire ebolavirus

## HMQISTIGI
[1]
  pIC50: 5.02
[2]; [25]
  pIC50: 5.39
[3]; [25]
  pIC50: 4.81

## GATTETPTW
[4]
  pKd: 8.68
[5]
  pKd: 7.09
[6]
  pKd: 7.16

## QLAKRSEIL
[7]
  pKd: ≤ 4.70
[8]
  pKd: 5.88
[9]
  pKd: ≤ 4.70
[10]
  pKd: ≤ 4.70
[11]
  pKd: ≤ 4.70
[12]
  pKd: ≤ 4.70
[13]
  pKd: ≤ 4.70
[14]
  pKd: ≤ 4.70
[15]
  pKd: ≤ 4.70
[16]
  pKd: ≤ 4.70
[17]
  pKd: ≤ 4.70
[18]
  pKd: ≤ 4.70
[19]
  pKd: ≤ 4.70
[20]
  pKd: ≤ 4.70

## ISNSVAQAR
[21]; [26]
  pIC50: ≤ 3.96
[22]
  pIC50: 4.31

## RKAIDFLLR
[21]; [25]
  pIC50: ≤ 3.67

## LPTKLRPSA
[23]
  pKd: ≤ 4.70
[24]
  pKd: 6.99

## GLITGGRRT
[2]; [26]
  pIC50: 4.83
[3]; [26]
  pIC50: 4.72
[21]; [26]
  pIC50: ≤ 3.85
[22]
  pIC50: ≤ 4.00

## KAKGSRAIW
[4]
  pKd: 6.55
[5]
  pKd: 8.00
